Source: publication PMC4622456 (mAbs, 2015)

B1: mouse 6B8 (antibody, V domains shown)
VH: QVQLQQSDAELVKPGTSVKTSCKISGNTFTDQTIHWMKQRPEQGLEWIGYIYPRDDSPKYNENFKGKATLTADKSSSTAYMQLNSLTSEDSAVYFCAIPDRSGYAWFIYWGQGTLVTVSS
VL: DIVMTQSHKFLSTSVGDRVTITCKASRDVAIAVAWYQQKPGQSPKLLLFWASTRHTGVPDRFTGSGSRTDFTLTISNVQSEDLADYFCHQYSSYPFTFGSGTKLEIK
B2: recombinant chimeric 6B8 (antibody, V domains shown)
VH: B1 VH
VL: B1 VL

Columns and labels:
recombinant human IL23 [1] = target: T1, recombinant human IL23 (human, UniProt Q9NPF7;P29460); assay: cell-based or functional assay
recombinant human IL23 [2] = target: T1, recombinant human IL23; assay: SPR

T1 sequence (Q9NPF7 20-189, chain 1 of 2): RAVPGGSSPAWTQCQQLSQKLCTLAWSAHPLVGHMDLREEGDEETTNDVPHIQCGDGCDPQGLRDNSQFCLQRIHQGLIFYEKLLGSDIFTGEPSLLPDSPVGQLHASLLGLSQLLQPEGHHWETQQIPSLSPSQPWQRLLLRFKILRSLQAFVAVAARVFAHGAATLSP
T1 sequence (P29460 23-328, chain 2 of 2): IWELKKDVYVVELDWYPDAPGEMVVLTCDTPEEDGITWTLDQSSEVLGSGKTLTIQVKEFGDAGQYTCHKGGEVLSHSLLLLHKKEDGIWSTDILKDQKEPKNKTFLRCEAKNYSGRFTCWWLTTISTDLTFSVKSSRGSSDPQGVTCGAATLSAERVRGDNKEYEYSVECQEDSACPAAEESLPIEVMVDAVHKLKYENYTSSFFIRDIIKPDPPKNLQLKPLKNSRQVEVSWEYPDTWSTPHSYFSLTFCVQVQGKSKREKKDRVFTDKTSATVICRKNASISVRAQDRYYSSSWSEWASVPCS

Binder | Inhibition of IL23 induced IL17 production in mouse splenocytes (IC50, pM) (recombinant human IL23 [1]) [pM] | Kd (recombinant human IL23 [2]) [nM]
B1 | 8 | 0.025
B2 | – | < 0.01
